Measured values from the supplement of paper PMC9732359.
± gives the uncertainty stated by the source.

Experiment: protein stability index of a GFP-peptide fusion (yeast GPS) (PSI 1-4); higher = more stable; sorted into four equal gates, so the index is relative within each strain
Settings: ubr1∆
Summary of the method: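 Plasmids isolated from each sorting gate were PCR-amplified and Illumina-sequenced, and barcodes assigned the reads to strains. The gates, four of equal size, were set by GFP/Cherry fluorescence ratio on mid-log cultures in leucine-free medium. These cultures were yeast carrying a pooled library of tiled 17-residue yeast protein peptides fused downstream of GFP on a plasmid that also expresses Cherry. The protein stability index is the sum of every gate's read frequency times its gate number.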

Question: With KQDKTLQKVENQTIKEA [YIL149C/MLP2] as the sequence, how does the protein stability index read?
Answer: 3.17 ± 0.062

Question: For KQGFVIYRVRVRRGNRK [RPL15A], which protein stability index is on record?
Answer: 2.26 ± 0.089

Question: For KQIDIPNFNVEIMQQKF [ECM29], which protein stability index is on record?
Answer: 3.11 ± 0.097

Question: Which protein stability index does the source give for KQLNSLRRSGQIANDPS [SMD1] here?
Answer: 2.91 ± 0.07

Question: With KQNNKDFRTRYIDIRTN [MTW1] as the sequence, how does the protein stability index read?
Answer: 2.62 ± 0.077

Question: With KQNPGLMQNMMNMFGGG [SRP54] as the sequence, how does the protein stability index read?
Answer: 1.8 ± 0.042

Question: With KQRLDLARQVKLLLLNT [YIL149C/MLP2] as the sequence, how does the protein stability index read?
Answer: 1.88 ± 0.034

Question: For KQSGFGGQTKPVFHKKA [RPL42A], which protein stability index is on record?
Answer: 3.045 ± 0.029

Question: Which protein stability index does the source give for KQVQDFEENDHPNRVLE [COR1] here?
Answer: 2.9 ± 0.065

Question: For KREESESAAVYNGRGAR [SNF2], which protein stability index is on record?
Answer: 3.49 ± 0.085

Question: For KRFNIGADPNYRTYSER [RPR2], which protein stability index is on record?
Answer: 3.35 ± 0.11

Question: Which protein stability index does the source give for KRKKEANEEPNTENVES [ITC1] here?
Answer: 2.65 ± 0.034

Question: Which protein stability index does the source give for KRKVLELKKKRKIKRLE [SRP72] here?
Answer: 3.29 ± 0.058

Question: Which protein stability index does the source give for KRLNGKRKYLDIPIDEM [SSN2] here?
Answer: 3.14 ± 0.17

Question: For KRLTEDERIEKELNTER [CDC53], which protein stability index is on record?
Answer: 2.31 ± 0.12

Question: Which protein stability index does the source give for KRPIESGTSSDPDTKKV [YIL149C/MLP2] here?
Answer: 3.29 ± 0.072

Question: For KRVTKVKRLLFTIRGFK [MTW1], which protein stability index is on record?
Answer: 2.54 ± 0.042

Question: For KSCEPVSISTSVKPHVV [SIR4], which protein stability index is on record?
Answer: 2.42 ± 0.045

Question: With KSDSQYRFYEYIYSQET [MED1] as the sequence, how does the protein stability index read?
Answer: 2.58 ± 0.07

Question: With KSHKQTIVTGGGSGNGD [RPP1] as the sequence, how does the protein stability index read?
Answer: 3.44 ± 0.2

Question: For KSKAEELTQVPSARQKY [UBP6], which protein stability index is on record?
Answer: 2.37 ± 0.16

Question: Which protein stability index does the source give for KSKLDQDSTSENVKIIN [RPN2] here?
Answer: 3.18 ± 0.08

Question: For KSLDAETEAEEDHMLKK [RPO21], which protein stability index is on record?
Answer: 3.16 ± 0.094

Question: Which protein stability index does the source give for KSLKNNFYRPLLRSVLV [YML103C/NUP188] here?
Answer: 2.29 ± 0.051

Question: Which protein stability index does the source give for KSMITSEGEQKSAEGNN [YAR002W/NUP60] here?
Answer: 3.17 ± 0.041

Question: Which protein stability index does the source give for KSTPEGTLWAHVLKTVD [SNU114] here?
Answer: 2.27 ± 0.038

Question: With KTASLGNSKDDLLDMIQ [ISW2] as the sequence, how does the protein stability index read?
Answer: 1.94 ± 0.059

Question: Which protein stability index does the source give for KTDTKVSFRTHNSHLSL [SRP21] here?
Answer: 3.15 ± 0.048

Question: With KTESQDVETRVQNLEQT [DPB4] as the sequence, how does the protein stability index read?
Answer: 3.24 ± 0.048

Question: Which protein stability index does the source give for KTEYVLNDLNHLLVQLQ [REC8] here?
Answer: 3.02 ± 0.094

Question: With KTHRGLRKVACIGAWHP [RPL3] as the sequence, how does the protein stability index read?
Answer: 2.92 ± 0.076

Question: With KTKLWGFKWLNKLDEYH [LIN1] as the sequence, how does the protein stability index read?
Answer: 3.22 ± 0.2

Question: Which protein stability index does the source give for KTNIIEKAMDYAISIEN [RPN12] here?
Answer: 3.45 ± 0.12

Question: Which protein stability index does the source give for KTQCPNYDTCGGESAYF [RPC11] here?
Answer: 2.94 ± 0.15

Question: With KTQFSWQYYYYTLTEEG [RPS10A] as the sequence, how does the protein stability index read?
Answer: 2.35 ± 0.058

Question: Which protein stability index does the source give for KTRGPFHFRAPSRIFYK [RPL16A] here?
Answer: 2.77 ± 0.057

Question: Which protein stability index does the source give for KTSCVVEKRIGKIVSQR [RGR1] here?
Answer: 2.85 ± 0.036

Question: Which protein stability index does the source give for KTSLMDLLVIDSHKRIP [SNU114] here?
Answer: 2.41 ± 0.054

Question: With KTVCAIALILAIQMVDP [SMC3] as the sequence, how does the protein stability index read?
Answer: 1.87 ± 0.081

Question: With KTWLRNQEDEKNLQRES [RTT102] as the sequence, how does the protein stability index read?
Answer: 3.23 ± 0.19

Question: With KVDWAREHFEKTVAVDS [RPL3] as the sequence, how does the protein stability index read?
Answer: 1.9 ± 0.15

Question: With KVEKRVLGLTILRGEQI [SMB1] as the sequence, how does the protein stability index read?
Answer: 1.95 ± 0.091

Question: For KVEYKIVHDDPASDDIL [ITC1], which protein stability index is on record?
Answer: 3.21 ± 0.091

Question: Which protein stability index does the source give for KVIEQPITSETAMKKVE [RPL25] here?
Answer: 2.93 ± 0.074

Question: With KVISSDARGVIGVIAGG [RPL2A] as the sequence, how does the protein stability index read?
Answer: 2.84 ± 0.12

Question: For KVLLPSINISCVQLIKC [SWI1], which protein stability index is on record?
Answer: 1.49 ± 0.051

Question: Which protein stability index does the source give for KVLTALSRLQKSGRING [SMC4] here?
Answer: 3.43 ± 0.19

Question: With KVPQQAAGKRISHIEKR [SMC1] as the sequence, how does the protein stability index read?
Answer: 3.15 ± 0.12

Question: Which protein stability index does the source give for KVSPSMCGVIVKQYNKK [SIN4] here?
Answer: 3.15 ± 0.14

Question: Which protein stability index does the source give for KVTSTLLEQDTSTEKLY [PRE9] here?
Answer: 2.63 ± 0.08

Question: With KVVNFWLLHNGFSTGIG [RPO21] as the sequence, how does the protein stability index read?
Answer: 1.37 ± 0.094

Question: For KVVTKKYCEIMGDNSQL [SNF2], which protein stability index is on record?
Answer: 2.98 ± 0.1

Question: For KVWLDPNETSEIAQANS [RPL19A], which protein stability index is on record?
Answer: 3.04 ± 0.29

Question: For KWSKKSMKDRAQHAVIL [RPS25A], which protein stability index is on record?
Answer: 2.63 ± 0.054

Question: Which protein stability index does the source give for KYHNDLIEKEIQPKITE [SMC1] here?
Answer: 3.07 ± 0.059

Question: Which protein stability index does the source give for KYIALQVIVDIFSVHGN [YCG1] here?
Answer: 1.75 ± 0.16

Question: For KYKPTPLYVMDEIDAAL [SMC4], which protein stability index is on record?
Answer: 2.81 ± 0.057

Question: With KYNRYEKRHKNVPVHVS [RPS11A] as the sequence, how does the protein stability index read?
Answer: 1.94 ± 0.055

Question: For KYPIFTGESWVKLTYNS [YDL088C/ASM4], which protein stability index is on record?
Answer: 2.34 ± 0.058

Question: Which protein stability index does the source give for KYRQTKLSKEERAARVA [RPL5] here?
Answer: 2.65 ± 0.07

Question: Which protein stability index does the source give for KYSKLVDNVTLESYKTQ [SRP72] here?
Answer: 3.22 ± 0.11

Question: Which protein stability index does the source give for LAAPKKLNDSQRKTVNS [POP1] here?
Answer: 3.34 ± 0.075

Question: Which protein stability index does the source give for LAAVPAAGPASAGGAAA [RPP2A] here?
Answer: 1.61 ± 0.071

Question: For LAFIPNILALNLVSLLI [YML031W/NDC1], which protein stability index is on record?
Answer: 1.73 ± 0.047

Question: With LAHSQHRCAIRSGALIK [SSN2] as the sequence, how does the protein stability index read?
Answer: 1.16 ± 0.037

Question: Which protein stability index does the source give for LAHVDQIVDIRNKRAVQ [YJL039C/NUP192] here?
Answer: 2.71 ± 0.13

Question: With LAIADSPQKFETNLQTF [ECM29] as the sequence, how does the protein stability index read?
Answer: 2.79 ± 0.091

Question: With LAIIGDENPDLLGYTGI [PRE8] as the sequence, how does the protein stability index read?
Answer: 1.93 ± 0.054

Question: With LALERMVPKRSTIITKA [YCS4] as the sequence, how does the protein stability index read?
Answer: 1.08 ± 0.091

Question: For LALINYGRQELADDLIT [RPN2], which protein stability index is on record?
Answer: 1.49 ± 0.14

Question: For LANLIRDALRNIKNTNE [RRP6], which protein stability index is on record?
Answer: 2.49 ± 0.036

Question: For LASAIASGLLRAYLSHS [CSN12], which protein stability index is on record?
Answer: 1.4 ± 0.054

Question: Which protein stability index does the source give for LASIPDIFITPTPVVTI [SSN2] here?
Answer: 1.63 ± 0.044

Question: With LCAGANNPKIQTKDSVK [IRR1] as the sequence, how does the protein stability index read?
Answer: 3.15 ± 0.057

Question: For LCLEKLMCLSSKYCEKS [YCS4], which protein stability index is on record?
Answer: 1.92 ± 0.059

Question: With LCVLDYDNIDIQRGRIL [RPB7] as the sequence, how does the protein stability index read?
Answer: 2.42 ± 0.12

Question: For LDAKNKVFVPPKSKSLP [RPO31], which protein stability index is on record?
Answer: 2.72 ± 0.055

Question: With LDDDSIVNHEQDLPKIN [SRB4] as the sequence, how does the protein stability index read?
Answer: 2.81 ± 0.063

Question: For LDDITDSNTTEILTSVD [SIR4], which protein stability index is on record?
Answer: 3.08 ± 0.065

Question: Which protein stability index does the source give for LDDLVVLKKKNIQKKQP [RRP6] here?
Answer: 2.34 ± 0.14

Question: With LDDQIFVCEKSIEFAKR [RPN6] as the sequence, how does the protein stability index read?
Answer: 1.27 ± 0.16

Question: Which protein stability index does the source give for LDEVDAALDITNVQRIA [SMC1] here?
Answer: 3.16 ± 0.087

Question: With LDFIGRRGTALGIKKEK [RPB2] as the sequence, how does the protein stability index read?
Answer: 2.07 ± 0.08

Question: Which protein stability index does the source give for LDISVFLLEKAGERKIP [TAF14] here?
Answer: 2.16 ± 0.061

Question: With LDKHERKWMEEKADYER [YIL149C/MLP2] as the sequence, how does the protein stability index read?
Answer: 3.25 ± 0.12

Question: Which protein stability index does the source give for LDKLDEILYYQIKTLPE [AAR2] here?
Answer: 3.25 ± 0.15

Question: For LDLKECYQFAEYLFKPQ [ARP7], which protein stability index is on record?
Answer: 2.97 ± 0.059

Question: Which protein stability index does the source give for LDLLRPVVRAPTVKYNR [RPL13A] here?
Answer: 2.08 ± 0.11

Question: With LDSMIELFKDYKPGSIT [MED1] as the sequence, how does the protein stability index read?
Answer: 1.99 ± 0.052

Question: With LDVDPAKRIRVSHHATT [RPB2] as the sequence, how does the protein stability index read?
Answer: 3 ± 0.044

Question: With LDYVRTPAAATSPIDIR [SNF2] as the sequence, how does the protein stability index read?
Answer: 2.36 ± 0.045

Question: With LEASYSKSYTPRKLVLS [SMC4] as the sequence, how does the protein stability index read?
Answer: 2.22 ± 0.05

Question: Which protein stability index does the source give for LEEITQYEHLIKGIREY [YDL116W/NUP84] here?
Answer: 2.81 ± 0.14

Question: For LEEKLYQMQSNYESVFT [YIL149C/MLP2], which protein stability index is on record?
Answer: 2.57 ± 0.045

Question: With LEELAETFQDTFSGALG [FAS2] as the sequence, how does the protein stability index read?
Answer: 3.31 ± 0.067

Question: Which protein stability index does the source give for LEFYKDKFFNEVNKSEL [SIR3] here?
Answer: 3.43 ± 0.064

Question: Which protein stability index does the source give for LEKVVPLINVVVDILSA [BRR2] here?
Answer: 1.26 ± 0.19

Question: For LELGSCFSQENIEEMAR [SIN4], which protein stability index is on record?
Answer: 2.64 ± 0.073

Question: Which protein stability index does the source give for LELIGVLSINPDMYERK [MED7] here?
Answer: 2.73 ± 0.061

Question: For LELLNQLDGFSSDDRVK [RPT5], which protein stability index is on record?
Answer: 3.03 ± 0.046

Question: With LELQVAQAFVELENSSP [RPS7A] as the sequence, how does the protein stability index read?
Answer: 1.85 ± 0.11
